Results from the supplement of paper PMC10567573.

B1: FUNDC2 (parent)
chain: YIKVDWQRVEKDMKKAKEQLKIRK

Variants of: B1
Test: protein stability index of a GFP-peptide fusion (GPS, HEK-293T) (PSI 1-6); higher = more stable
Settings: c terminus: a fixed tail appended
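Further: lentivirally expressed fusions sorted by FACS into six bins by GFP to DsRed ratio, PSI derived from sequencing read proportions per bin multiplied by bin number.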

Variant	protein stability index
YIKTDWQRVEKDMKKAKEQLKIRK [V4T]	1.71
YIKGDWQRVEKDMKKAKEQLKIRK [V4G]	2.36
YIKHDWQRVEKDMKKAKEQLKIRK [V4H]	2.52
YIKQDWQRVEKDMKKAKEQLKIRK [V4Q]	1.83
YIKSDWQRVEKDMKKAKEQLKIRK [V4S]	2.25
YIKEDWQRVEKDMKKAKEQLKIRK [V4E]	1.81
YIKLDWQRVEKDMKKAKEQLKIRK [V4L]	2.23
YIKADWQRVEKDMKKAKEQLKIRK [V4A]	3.41
YIKRDWQRVEKDMKKAKEQLKIRK [V4R]	2.74
YIKCDWQRVEKDMKKAKEQLKIRK [V4C]	1.56
YIKNDWQRVEKDMKKAKEQLKIRK [V4N]	2.13
YIKYDWQRVEKDMKKAKEQLKIRK [V4Y]	2.4
YIKFDWQRVEKDMKKAKEQLKIRK [V4F]	1.73
YIKDDWQRVEKDMKKAKEQLKIRK [V4D]	1.99
YIKMDWQRVEKDMKKAKEQLKIRK [V4M]	1.45
YIKKDWQRVEKDMKKAKEQLKIRK [V4K]	1.92
YIKIDWQRVEKDMKKAKEQLKIRK [V4I]	2.53
YIKVDWQRVEKRMKKAKEQLKIRK [D12R]	1.91
YIKVDWQRVEKGMKKAKEQLKIRK [D12G]	2.68
YIKVDWQRVEKLMKKAKEQLKIRK [D12L]	2.8
YIKVDWQRVEKMMKKAKEQLKIRK [D12M]	2.97
YIKVDWQRVEKPMKKAKEQLKIRK [D12P]	1.45
YIKVDWQRVEKTMKKAKEQLKIRK [D12T]	1.74
YIKVDWQRVEKYMKKAKEQLKIRK [D12Y]	3.43

Variant	protein stability index
YIKVDWQRVEKEMKKAKEQLKIRK [D12E]	1.82
YIKVDWQRVEKNMKKAKEQLKIRK [D12N]	1.47
YIKVDWQRVEKQMKKAKEQLKIRK [D12Q]	2.63
YIKVDWQRVEKVMKKAKEQLKIRK [D12V]	3.62
YIKVDWQRVEKHMKKAKEQLKIRK [D12H]	1.03
YIKVDWQYVEKDMKKAKEQLKIRK [R8Y]	1.62
YIKVDWQAVEKDMKKAKEQLKIRK [R8A]	2.35
YIKVDWQDVEKDMKKAKEQLKIRK [R8D]	2.05
YIKVDWQNVEKDMKKAKEQLKIRK [R8N]	1.79
YIKVDWQEVEKDMKKAKEQLKIRK [R8E]	2.15
YIKVDWQGVEKDMKKAKEQLKIRK [R8G]	1.71
YIKVDWQKVEKDMKKAKEQLKIRK [R8K]	2.01
YIKVDWQQVEKDMKKAKEQLKIRK [R8Q]	1.68
YIKVDWQLVEKDMKKAKEQLKIRK [R8L]	2.21
YIKVDWQIVEKDMKKAKEQLKIRK [R8I]	1.82
YIKVDWQSVEKDMKKAKEQLKIRK [R8S]	1.96
YIKVDWQPVEKDMKKAKEQLKIRK [R8P]	2.48
YIKVDWQCVEKDMKKAKEQLKIRK [R8C]	1.04
YIKVDWQFVEKDMKKAKEQLKIRK [R8F]	1.99
YIKVDWQMVEKDMKKAKEQLKIRK [R8M]	2.35
YIKVDWQVVEKDMKKAKEQLKIRK [R8V]	1.74
YIKVDWQTVEKDMKKAKEQLKIRK [R8T]	2.21
YIKVDWQHVEKDMKKAKEQLKIRK [R8H]	2.11
YIKVDWQRVENDMKKAKEQLKIRK [K11N]	2.59

Variant	protein stability index
YIKVDWQRVEADMKKAKEQLKIRK [K11A]	2.37
YIKVDWQRVETDMKKAKEQLKIRK [K11T]	2.56
YIKVDWQRVEQDMKKAKEQLKIRK [K11Q]	2.12
YIKVDWQRVEMDMKKAKEQLKIRK [K11M]	1.57
YIKVDWQRVECDMKKAKEQLKIRK [K11C]	1.53
YIKVDWQRVEPDMKKAKEQLKIRK [K11P]	2.5
YIKVDWQRVEGDMKKAKEQLKIRK [K11G]	1.2
YIKVDWQRVEEDMKKAKEQLKIRK [K11E]	2.01
YIKVDWQRVERDMKKAKEQLKIRK [K11R]	2.09
YIKVDWQRVEYDMKKAKEQLKIRK [K11Y]	1.55
YIKVDWQRVEDDMKKAKEQLKIRK [K11D]	2.06
YIKVDWQRVELDMKKAKEQLKIRK [K11L]	1.46
YIKVDWQRVEIDMKKAKEQLKIRK [K11I]	1.78
YIKVDWQRVEVDMKKAKEQLKIRK [K11V]	2.16
YIKVDWQRVEHDMKKAKEQLKIRK [K11H]	1.95
YIKVDWQRVESDMKKAKEQLKIRK [K11S]	1.97
YIKVDWQRVEFDMKKAKEQLKIRK [K11F]	1.64
YIKVDDQRVEKDMKKAKEQLKIRK [W6D]	3.77
YIKVDTQRVEKDMKKAKEQLKIRK [W6T]	2.97
YIKVDSQRVEKDMKKAKEQLKIRK [W6S]	3.31
YIKVDRQRVEKDMKKAKEQLKIRK [W6R]	2.97
YIKVDEQRVEKDMKKAKEQLKIRK [W6E]	2.91
YIKVDKQRVEKDMKKAKEQLKIRK [W6K]	3.09
YIKVDFQRVEKDMKKAKEQLKIRK [W6F]	2.63

Variant	protein stability index
YIKVDQQRVEKDMKKAKEQLKIRK [W6Q]	2.71
YIKVDVQRVEKDMKKAKEQLKIRK [W6V]	3.49
YIKVDGQRVEKDMKKAKEQLKIRK [W6G]	2.81
YIKVDCQRVEKDMKKAKEQLKIRK [W6C]	2.64
YIKVDMQRVEKDMKKAKEQLKIRK [W6M]	2.46
YIKVDHQRVEKDMKKAKEQLKIRK [W6H]	2.83
YIKVDNQRVEKDMKKAKEQLKIRK [W6N]	3.23
YIKVDYQRVEKDMKKAKEQLKIRK [W6Y]	2.24
YIKVDLQRVEKDMKKAKEQLKIRK [W6L]	2.28
YIKVDAQRVEKDMKKAKEQLKIRK [W6A]	3.39
YIKVDPQRVEKDMKKAKEQLKIRK [W6P]	3.15
YIKVDIQRVEKDMKKAKEQLKIRK [W6I]	2.47
YIKVDWQRMEKDMKKAKEQLKIRK [V9M]	1.26
YIKVDWQRDEKDMKKAKEQLKIRK [V9D]	2.62
YIKVDWQRAEKDMKKAKEQLKIRK [V9A]	1.5
YIKVDWQRSEKDMKKAKEQLKIRK [V9S]	1.91
YIKVDWQRWEKDMKKAKEQLKIRK [V9W]	1.99
YIKVDWQRIEKDMKKAKEQLKIRK [V9I]	2.28
YIKVDWQRHEKDMKKAKEQLKIRK [V9H]	1.61
YIKVDWQRGEKDMKKAKEQLKIRK [V9G]	1.95
YIKVDWQRKEKDMKKAKEQLKIRK [V9K]	2.45
YIKVDWQRPEKDMKKAKEQLKIRK [V9P]	1.81
